Data taken from paper PMC9568614 (2022).

Assays:
[1] = target: T1, recombinant human FcRn (FcRn alpha-chain with C-terminal BirA 10x-Histidine tag, with beta-2-microglobulin) (human, UniProt P55899 24-297; P61769 21-119); experiment: SPR; pH 6.0
[2] = target: T1, recombinant human FcRn (FcRn …); experiment: SPR; pH 7.4

- Kd [1]: 33 nM
- Kd [2]: 1220 nM
B1: Fc-MST-HN (IgG1 Fc fragment with M252Y, S254T, T256E, H433K, N434F) (domain or fragment)
chain: DKTHTCPPCPAPELLGGPSVFLFPPKPKDTLYITREPEVTCVVVDVSHEDPEVKFNWYVDGVEVHNAKTKPREEQYNSTYRVVSVLTVLHQDWLNGKEYKCKVSNKALPAPIEKTISKAKGQPREPQVYTLPPSRDELTKNQVSLTCLVKGFYPSDIAVEWESNGQPENNYKTTPPVLDSDGSFFLYSKLTVDKSRWQQGNVFSCSVMHEALKFHYTQKSLSLSP
